The labels stand for the following.
B1: CPEB3 Ribozyme (parent)
chain: GGGGGCCACAGCAGAAGCGUUCACGUCGCGGCCCCUGUCAGAUUCUGGUGAAUCUGCGAAUUCUGCUGU

Variants of B1 are the subject of the data set. Kind of data set: self-cleavage, relative activity (ratio to wild type); higher = more cleavage; co-transcriptional.
Regarding GGGGGCGAUAGCAGAAGCGUUCACGUCGCGGCCCCUGUCAGAUUCUGGUGAAUCUGCGAAUUCUGCUGU [C7G C9U], the self-cleavage worked out at 0.844.

In the case of GGGGGCGACAGCAGAAGCGUUCACGUCGCGGCCCCUGUCAGAUUCUGGCGAAUCUGCGAAUUCUGCUGU [C7G U49C], the self-cleavage was determined as 0.491.

Turning to GGGGGCGACAGCAGAAGCGUUCACGUCGCGGCCCCUGUCAGAUUCUGGAGAAUCUGCGAAUUCUGCUGU [C7G U49A], the self-cleavage is 0.444.

For the variant GGGGGCGACAGCAGAAGCGUUCACGUCGCGGCCCCAGUCAGAUUCUGGUGAAUCUGCGAAUUCUGCUGU [C7G U36A], the self-cleavage was 0.0233.

As for GGGGGCGACAGCAGAAGCGUUCUCGUCGCGGCCCCUGUCAGAUUCUGGUGAAUCUGCGAAUUCUGCUGU [C7G A23U], the self-cleavage amounted to 0.645.

For GGGGGCGACAGCAGAAGCGUUCGCGUCGCGGCCCCUGUCAGAUUCUGGUGAAUCUGCGAAUUCUGCUGU [C7G A23G], the self-cleavage amounted to 0.333.

On to GGGGGCGACAGCAGAAGCGUUCACGUCGCGGACCCUGUCAGAUUCUGGUGAAUCUGCGAAUUCUGCUGU [C7G C32A], for which the self-cleavage is 0.0649.

Regarding GGGGGCGACAGCAGAAGCGUUCACGUCGCGGCCCCUGUCAGAUUCUGGUGAAUCUUCGAAUUCUGCUGU [C7G G56U], the self-cleavage amounted to 0.177.

Consider GGGGGCGACAGCAGUAGCGUUCACGUCGCGGCCCCUGUCAGAUUCUGGUGAAUCUGCGAAUUCUGCUGU [C7G A15U], for which the self-cleavage is 0.0664.

As to GGGGGCGACAGCAGAAGCGUUCAAGUCGCGGCCCCUGUCAGAUUCUGGUGAAUCUGCGAAUUCUGCUGU [C7G C24A], the self-cleavage is 0.0945.

GGGGGCAACAGCAGAAGCGUUCACGUCGCGGCCCCUGUCAGAUUCAGGUGAAUCUGCGAAUUCUGCUGU [C7A U46A]: the self-cleavage was 0.6.

As to GGGGGCGACAGCAGAAGCGUUCACGUCGCGGCCCCUGUCCGAUUCUGGUGAAUCUGCGAAUUCUGCUGU [C7G A40C], the self-cleavage was 0.17.

Consider GGGGGCAACAGCAGAAGCGUUCACGUCGCGGCCCCUGUCAGAUUCUGGUGAAUCUGCGAAAUCUGCUGU [C7A U61A], for which the self-cleavage came to 0.169.

As for GGGGGCGACAGCAGAAGCGUUCACGUCGCGGCCCCUGUCAGAUUCUGGUGAAUCUGCGAAUUCUGCUCU [C7G G68C], the self-cleavage was found to be 0.815.

Turning to GGGGGCGACAUCAGAAGCGUUCACGUCGCGGCCCCUGUCAGAUUCUGGUGAAUCUGCGAAUUCUGCUGU [C7G G11U], the self-cleavage came to 0.175.

Consider GGGGGCGACACCAGAAGCGUUCACGUCGCGGCCCCUGUCAGAUUCUGGUGAAUCUGCGAAUUCUGCUGU [C7G G11C], for which the self-cleavage was determined as 0.157.

As for GGGGGCGACAGCAGAAGCGUUCACGUCGCGGCCCCUGUCAGAUUCUGGUGAAUCUGAGAAUUCUGCUGU [C7G C57A], the self-cleavage worked out at 0.146.

For GGGGGCGACAGCAGAAGCGUUCACGUCGCGGCCCCUGUCAGAUUCGGGUGAAUCUGCGAAUUCUGCUGU [C7G U46G], the self-cleavage was found to be 0.455.

Regarding GGGGGCAACAGCAGAAGCGUUCACGUCGCGGCCCCUGUCAGAUUCUGGUGAAUCUGCGAAUUCUGCAGU [C7A U67A], the self-cleavage turned out to be 0.884.

On to GGGGGCAACAGCAGAAGCGUUCACGUCGCGGCCCCUGUCAGAUUCUGGUGAAUCUGCGAAUUCUGCGGU [C7A U67G], for which the self-cleavage was 0.858.

On to GGGGGCGACAGCAGAAGCGUACACGUCGCGGCCCCUGUCAGAUUCUGGUGAAUCUGCGAAUUCUGCUGU [C7G U21A], for which the self-cleavage is 0.395.

For the variant GGGGGCGACAGCAGAAGCGUGCACGUCGCGGCCCCUGUCAGAUUCUGGUGAAUCUGCGAAUUCUGCUGU [C7G U21G], the self-cleavage was determined as 0.119.

Consider GGGGGCGACAGCAGAAGCGUUCACGUCGGGGCCCCUGUCAGAUUCUGGUGAAUCUGCGAAUUCUGCUGU [C7G C29G], for which the self-cleavage was found to be 0.125.

Turning to GGGGGCGACAGCAGAAGCGUUCACGUCGUGGCCCCUGUCAGAUUCUGGUGAAUCUGCGAAUUCUGCUGU [C7G C29U], the self-cleavage is 0.0696.

As to GGGGGCGACAGCAGAAGCGUUCACGUCGAGGCCCCUGUCAGAUUCUGGUGAAUCUGCGAAUUCUGCUGU [C7G C29A], the self-cleavage came to 0.102.

GGGGGCGACAGCAGAAGCGUUCACGUCGCGGCCCCUGUCAGAUUCUGGUGAAUCUGCAAAUUCUGCUGU [C7G G58A]: the self-cleavage was determined as 0.281.

On to GGGGGCGACAGCAGAAGCGUUCACAUCGCGGCCCCUGUCAGAUUCUGGUGAAUCUGCGAAUUCUGCUGU [C7G G25A], for which the self-cleavage stood at 0.107.

As to GGGGGCAACAGCAGAAGCGUUCACGUCGCGGCCCCUGUCAGAUACUGGUGAAUCUGCGAAUUCUGCUGU [C7A U44A], the self-cleavage turned out to be 0.447.

Turning to GGGGGCGACAGCAGAAGCGUUCACGUCGCGGCUCCUGUCAGAUUCUGGUGAAUCUGCGAAUUCUGCUGU [C7G C33U], the self-cleavage was determined as 0.253.

As to GGGGGCGACAGCAAAAGCGUUCACGUCGCGGCCCCUGUCAGAUUCUGGUGAAUCUGCGAAUUCUGCUGU [C7G G14A], the self-cleavage is 0.0844.

Regarding GGGGGCGACAGCAGAAGCGUUCACGUCGCGGCCCCUGUCAGACUCUGGUGAAUCUGCGAAUUCUGCUGU [C7G U43C], the self-cleavage was 0.231.

GGGGGCAACAGCAGAAGCGUUCACGUCGCGGCCCCUGUCAGAUUCUGGUGAAACUGCGAAUUCUGCUGU [C7A U53A]: the self-cleavage came to 0.321.

Turning to GGGGGCAACAGCAGAAGCGUUCACGUCGCGGCCCCUGUCAGAUUCUGGUGAACCUGCGAAUUCUGCUGU [C7A U53C], the self-cleavage turned out to be 0.274.

For the variant GGGGGCGACAGCAGAAGCGUUAACGUCGCGGCCCCUGUCAGAUUCUGGUGAAUCUGCGAAUUCUGCUGU [C7G C22A], the self-cleavage is 0.104.

Consider GGGGGCGACAGCAGAAGCGUUGACGUCGCGGCCCCUGUCAGAUUCUGGUGAAUCUGCGAAUUCUGCUGU [C7G C22G], for which the self-cleavage was determined as 0.0908.

On to GGGGGCGACAGCAGAAGCGUUCACGUCGCGGCCCCUGUCAAAUUCUGGUGAAUCUGCGAAUUCUGCUGU [C7G G41A], for which the self-cleavage is 0.131.

GGGGGCGACAGCAGAAGCGUUCACGUCGCGGCCCCUGUCACAUUCUGGUGAAUCUGCGAAUUCUGCUGU [C7G G41C]: the self-cleavage turned out to be 0.121.

For the variant GGGGGCGACAGCAGAAGCGUUCACGUCCCGGCCCCUGUCAGAUUCUGGUGAAUCUGCGAAUUCUGCUGU [C7G G28C], the self-cleavage turned out to be 0.106.

With GGGGGCGACAGCAGAAGCGUUCACGUCACGGCCCCUGUCAGAUUCUGGUGAAUCUGCGAAUUCUGCUGU [C7G G28A], the self-cleavage came out at 0.0296.

Source of the values: the RNAGym collection of RNA variant scans (doi:10.7554/elife.80360).
